The results in this text go back to the nanobody polyreactivity screen of Harvey et al. (2022).

This data set is described as follows: yeast display, Sf9 membrane polyspecificity reagent, FACS + sequencing; frameworks hold sequencing errors. A digest of the protocol: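 Synthetic nanobody libraries on Saccharomyces cerevisiae BJ5465 were galactose-induced for 36–48 hours, stained 1 hour at 4 °C with 10% biotinylated, detergent-solubilized Sf9 membrane reagent and enriched on streptavidin microbeads. FACS then separated cells into low and high (top ~1%) gates by anti-HA (expression) and streptavidin (reagent binding) fluorescence. Genes were colony-PCR amplified, MiSeq 2 × 250 sequenced and CDR-length filtered. A clone's polyreactivity label is that of its gate of origin.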
Regarding “QVQLVESGGGLVQAGGSLRLSCAASGSTFYRYAMGWYRQAPGKERELVARIRLSGTSTYYADSVKGRFTISRDNAKNTVYLQMNSLKPEDTAVYYCAAELYSRNWRSQYDYWGQGSQVTVSS”, the “polyreactivity (PSR sort gate)” value was “high polyreactivity”.

“QVQLVESGGGLVQAGGSLRLSCAASGSTFYRYAMGWYRQAPGKERELVATIRSSGDSTNYADSVKGRFTISRDNAKNTVYLQMNSLKPEDTAVYYCAKYGKYTWRQGGYWGQGTQVTVSS”: the “polyreactivity (PSR sort gate)” value is on record as “high polyreactivity”.

With “QVQLVESGGGLVQAGGSLRLSCAASGSTFYRYAMGWYRQAPGKETELVAAITWRGGSTYYADSVKGRFTISRDNAKNTVYLQMNSLKPEDTAVYYCAAAKYRRGTRYYYWGQCTQVTVSS”, the “polyreactivity (PSR sort gate)” value is reported as “high polyreactivity”. In the case of “QVQLVESGGGLVQAGGSLRLSCAASGSTFYRYPMGWYRQAPGKEREFVAAISGSGGSTRYADSVKGRFTISRDNAKKTVYLQMNSLKPEDTAVYYCAARSRYGYITFDYWGQGTQVTVSS” it was “high polyreactivity”; in that of “QVQLVESGGGLVQAGGSLRLSCAASGSTFYSNAMGWYRQAPGKERELVAGISGSGGSTYYADSVKGRFTISRDNAKNTVYLQMNSLKPEDTAVYYCNARKTRSYFRFDSWGQGTQVTVSS”, “low polyreactivity”.

For “QVQLVESGGGLVQAGGSLRLSCAASGSTFYSNVMGWYRQAPGKERELVAAISRSGGSTYYADSVKGRFTISRDNAKNTVYLQMNSLKPEDTAVYYCAAEREVGDAYDYWGQGTQVTVSS”, the “polyreactivity (PSR sort gate)” value is reported as “high polyreactivity”. For the sequence “QVQLVESGGGLVQAGGSLRLSCAASGSTFYSYAMGWYRQAPGKDRELVAAISSSSGTTYYADSVKGRFSISRDNAKTTVYLQMNSLKPEDTAVYYCNRGRRYSHKYDYWGQGTQVTVSS”, the “polyreactivity (PSR sort gate)” value is “high polyreactivity”. For the sequence “QVQLVESGGGLVQAGGSLRLSCAASGSTFYSYAMGWYRQAPGKEREFVAAIRYSGGRTYADSVKGRFTISRDNAKNTVYLQMNSLKPEDTAVYYCAAVYYSYRWPYDYWGQGTQVTVSS”, the “polyreactivity (PSR sort gate)” value is on record as “high polyreactivity”. In the case of “QVQLVESGGGLVQAGGSLRLSCAASGSTFYSYAMGWYRQAPGKERELVAAITSGGSTNYADSVKGRFTISRDNAKNTVYLQMNSLKPEDTAVYYCARKYWHRSYGYDYWGQGTQVTVSS” it was “low polyreactivity”. In the case of “QVQLVESGGGLVQAGGSLRLSCAASGSTFYSYAMGWYRQAPGTERELVAAITSRGDRTYYADSVKGRFTISRDNAKNTVYLQMNSLKPEDTAVYYCAAEQSWQGYAYYYWGQGTQVTVSS” it was “high polyreactivity”; in that of “QVQLVESGGGLVQAGGSLRLSCAASGSTFYSYVMGWYRQAPGKERELVAAITYSGGRTYYADSVKGRFTISRDNAKNTVYLQMNSLKPEDTAVYYCAKRVFNYQRYDYWGQGTQVTVSS”, “high polyreactivity”; in that of “QVQLVESGGGLVQAGGSLRLSCAASGSTFYTNAMGWYRQAPGKEREFVAAISWSGSSTYADSVKGRFTISRDNAKNTVYLQMNSLKPEDTAVYYCAADWFKLRTDYYWGQGTQVTVSS”, “low polyreactivity”. In the case of “QVQLVESGGGLVQAGGSLRLSCAASGSTFYTNAMGWYRQAPGKERELVAAISASVGSTYYADSVKGRFTISRDNAKNTVYLQMNSLKPEDTAVYYCAADRGFYYEYDYWGQGTQVTVSS” it was “low polyreactivity”.

For “QVQLVESGGGLVQAGGSLRLSCAASGSTFYTNAMGWYRQAPGKERELVAAISASVGSTYYADSVKGRFTISRDNAKNTVYLQMNSLKPEDTAVYYCAAQYTYLLFASLPDYDYWGQGTQVTVSS”, the “polyreactivity (PSR sort gate)” value is on record as “low polyreactivity”.

As to “QVQLVESGGGLVQAGGSLRLSCAASGSTFYTNAMGWYRQAPGKERELVAAISGSGGSTNYADSVKGRFTISRDNAKNTVYLQMISLKPEDTAVYYGAADGSNYSGSVAAFPYRVDYWGQGTQVNVSS”, the “polyreactivity (PSR sort gate)” value is on record as “low polyreactivity”. To “QVQLVESGGGLVQAGGSLRLSCAASGSTFYTNAMGWYRQAPGKERELVAAISGSGGSTYYADSVKGRFTISRDNAMNTVYLQMNSLKPEDTAVYYCADRSRYYDTRFDYWGQGTQVTVSS” belongs “low polyreactivity”; to “QVQLVESGGGLVQAGGSLRLSCAASGSTFYTNAMGWYRQAPGKERELVAAISNAGSTYYADSVKGRFTISRDNAKNTVYLQMNSLKPEDTAVYYCAADPIGLSSLWFRYSVSDVDYWGQGTQVTVSS”, “low polyreactivity”.

On to “QVQLVESGGGLVQAGGSLRLSCAASGSTFYTYAMGWYRQAPGKERELVAAIRGRGGRTYYADSVKGRFTISRDNAKNTVYLQMNSLKPEDTSVYYCNADGYAYYRATTRFDYWGQGTQVTVSS”, for which the “polyreactivity (PSR sort gate)” value is listed as “high polyreactivity”. In the case of “QVQLVESGGGLVQAGGSLRLSCAASGSTFYTYAMGWYRQAPGKERELVAAISADGGRTYYADSVKGRFTISRDNAKNTVYLQMNSLKPEDTAVYYCAAEERRWSSYRYYYWGQGTQVTVSS” it was “high polyreactivity”.

Turning to “QVQLVESGGGLVQAGGSLRLSCAASGSTFYTYTMGWYRQAPGKERELVAAITWSGGSTYYADSVKGRFTISRDNAKNTVYLQMNSLKPEDTAVYYCNADQDYQGARPSGMDYWGQGTQVTVSS”, the “polyreactivity (PSR sort gate)” value is given as “low polyreactivity”. In the case of “QVQLVESGGGLVQAGGSLRLSCAASGSTFYVNAMGCYKQAPGKEWELVAAIDGCDTYYADSVKGRFTISRDNAKKTVNLQMNSLKPDDTEVYYCAAESLPEISVGLGYWGQGTQVTVSS” it was “low polyreactivity”; in that of “QVQLVESGGGLVQAGGSLRLSCAASGSTFYVNAMGWNRQAPGKEREFVAAISWSGGSTYYADSVKGRFTISRDNAKNTVYLQMNSLKPEDTAVYYCAADRVRKDGVLFDYWGQGTQVTVSS”, “high polyreactivity”. In the case of “QVQLVESGGGLVQAGGSLRLSCAASGSTFYVNAMGWYRQAPGKERELVAAIRSSAGNTTYADSVKGRFTISRDNAKNTVYLQMNSLKPEDTAVYYCAAETFYDYGGYDYWGQGTQVTVSS” it was “low polyreactivity”. As to “QVQLVESGGGLVQAGGSLRLSCAASGSTFYVNTMGWYRQAPGKERELVAVISRTGTSTYYADSVKGRFTISRDNAKNTVYFQMNCLKPEDTAVYYCAKRPLPGRPNRSILQYYYWGQVTQVTVSS”, the “polyreactivity (PSR sort gate)” value is on record as “high polyreactivity”. To “QVQLVESGGGLVQAGGSLRLSCAASGSTFYVYAMGWYRQAPGKERELGAAIDSGDSTNYADSVKGRVTISRDNAKNTVYLQMNSLKPEDTAVYYCAVGYWDSRYRYDWPNSDYWGQGTQVTVSS” belongs “low polyreactivity”; to “QVQLVESGGGLVQAGGSLRLSCAASGSTFYVYAMGWYRQAPGKERELVAAIDGSTGSTYYADSVKGRFTISRDNAKNTVYLQMNSLKPEDTAVYYCNAESIPPYSITKFDYWGQGTQGTVSS”, “low polyreactivity”; to “QVQLVESGGGLVQAGGSLRLSCAASGSTFYVYAMGWYRQAPGKERELVAAITRGGSTYYADSVKGRFTISRDNAKNTVYLQMNSLKPEDTAVYYCAKYLSGAADLVPEYDYWGQGTQVTVSS”, “low polyreactivity”.

In the case of “QVQLVESGGGLVQAGGSLRLSCAASGSTFYVYAMGWYRQAPGNERELVAAITSGGSTNYADSVKGRFTISRDNAKNTVYLQMNSLKPEDTAVYYCAAQGRVWDSYGYEYVQEVTRDYWGQGTQVTVSS”, the “polyreactivity (PSR sort gate)” value was “low polyreactivity”. To “QVQLVESGGGLVQAGGSLRLSCAASGSTFYWNAMGWYRQAPGKERELVAAIRRSSDRTYYADSVKGRFTISRDNAKNTVYLQMNSLKPEDTAVYYCAADAYYTYRLDYWGQGTQVTVSS” belongs “high polyreactivity”; to “QVQLVESGGGLVQAGGSLRLSCAASGSTFYWYAMGGYRQAPGKERELVAAISGSGGRTYYADSVKGRFTISRDNAKNTVYLQMYSLKPEDTAGYYCAADTKFYNYYYWGQGTQVTVSS”, “high polyreactivity”. To “QVQLVESGGGLVQAGGSLRLSCAASGSTFYWYAMGWYIQAPGKERELGAAIRWSGDRTYYADSVKGLFTISRDNAKNTVYLQMNSLKPEDTAVYYCAAGKGRPVGGRAYYYWGQGTQVTVSS” belongs “high polyreactivity”. In the case of “QVQLVESGGGLVQAGGSLRLSCAASGSTFYWYAMGWYRQAPGKERELVAAISRSSGSTYYADSVKGRFTISRDNAKNSVYLQMNSLKPEDTAVYYCAADYYLRSFVWTAYDSWGQGTQVTVSS”, the “polyreactivity (PSR sort gate)” value was “high polyreactivity”.

For the sequence “QVQLVESGGGLVQAGGSLRLSCAASGSTFYWYAMGWYRQAPGKERELVAAITYSSGRTYYADSVKGRFTISRDNAKNTVYLQMNSLKPEDTAVYYCGWSALNGYDYWGQGTQVTVSS”, the “polyreactivity (PSR sort gate)” value is reported as “high polyreactivity”.

As to “QVQLVESGGGLVQAGGSLRLSCAASGSTFYWYAMGWYRQAPGKERELVASISWSGGRTYYADSVKGRFTISRDTAKNTVYLQMNSLKPEDTAVYYCAARRKGRYYYWGQGTQVTVSS”, the “polyreactivity (PSR sort gate)” value was “high polyreactivity”. To “QVQLVESGGGLVQAGGSLRLSCAASGSTFYWYAMGWYRQAPGKERELVASITRSGVRTYYADSVKGRFTISRDNAKNTVYLQMNSLKPEDTAVYYCAAERYYFPRSYRYGYWGQGTQVTVSS” belongs “low polyreactivity”; to “QVQLVESGGGLVQAGGSLRLSCAASGSTFYYNAMGWYRQAHGKERELVARISRSGGSTYADSVKGRFTISRDNAKNTVYLQMNSLKPEDTAVYYCNADAYGTPEFTSYAVRYDYWGQGTQVTVSS”, “low polyreactivity”; to “QVQLVESGGGLVQAGGSLRLSCAASGSTFYYNAMGWYRQAPGKERELFAAITFTGGSTYADSVKGRFTISRDNAKNTVYLQMNSLKPEDTAVFYCAATIQGHDYLGSGYDYWGQGTQVTVSS”, “low polyreactivity”. In the case of “QVQLVESGGGLVQAGGSLRLSCAASGSTFYYNAMGWYRQAPGKERELVAAISRSGGRTYYADSVKGRFTISRDNAKNTVYLQMNSLKPEDTAVYYCAADAPGHEYYYWGQGTQVTVSS” it was “high polyreactivity”.

As for “QVQLVESGGGLVQAGGSLRLSCAASGSTFYYNAMGWYRQAPGKERELVAAITFTGGSTYADSVKGRFSISRDNAKNTVYLQMNSLKPEDTAVYYCAATIQGHDYLGTGYDYWGQGTQVTVSS”, the “polyreactivity (PSR sort gate)” value is recorded as “low polyreactivity”.

As to “QVQLVESGGGLVQAGGSLRLSCAASGSTFYYNAMGWYRQAPGKERELVAAITFTGGSTYADSVKGRFTISRDNAKNTVYLQMNSLKPEDTAVFYCAATIQGHDYLGTGYDYWGQGTQVTVSS”, the “polyreactivity (PSR sort gate)” value was “low polyreactivity”.
